Data from US20240309103A1 (Regeneron, published 2024).

Columns and labels:
[1] = biological target: T1, human NPR1 on HEK293/hNPR1.myc.DDK cells (0 hANP) (human, UniProt P16066 33-1061); assay: cell-based or functional assay
T1 sequence: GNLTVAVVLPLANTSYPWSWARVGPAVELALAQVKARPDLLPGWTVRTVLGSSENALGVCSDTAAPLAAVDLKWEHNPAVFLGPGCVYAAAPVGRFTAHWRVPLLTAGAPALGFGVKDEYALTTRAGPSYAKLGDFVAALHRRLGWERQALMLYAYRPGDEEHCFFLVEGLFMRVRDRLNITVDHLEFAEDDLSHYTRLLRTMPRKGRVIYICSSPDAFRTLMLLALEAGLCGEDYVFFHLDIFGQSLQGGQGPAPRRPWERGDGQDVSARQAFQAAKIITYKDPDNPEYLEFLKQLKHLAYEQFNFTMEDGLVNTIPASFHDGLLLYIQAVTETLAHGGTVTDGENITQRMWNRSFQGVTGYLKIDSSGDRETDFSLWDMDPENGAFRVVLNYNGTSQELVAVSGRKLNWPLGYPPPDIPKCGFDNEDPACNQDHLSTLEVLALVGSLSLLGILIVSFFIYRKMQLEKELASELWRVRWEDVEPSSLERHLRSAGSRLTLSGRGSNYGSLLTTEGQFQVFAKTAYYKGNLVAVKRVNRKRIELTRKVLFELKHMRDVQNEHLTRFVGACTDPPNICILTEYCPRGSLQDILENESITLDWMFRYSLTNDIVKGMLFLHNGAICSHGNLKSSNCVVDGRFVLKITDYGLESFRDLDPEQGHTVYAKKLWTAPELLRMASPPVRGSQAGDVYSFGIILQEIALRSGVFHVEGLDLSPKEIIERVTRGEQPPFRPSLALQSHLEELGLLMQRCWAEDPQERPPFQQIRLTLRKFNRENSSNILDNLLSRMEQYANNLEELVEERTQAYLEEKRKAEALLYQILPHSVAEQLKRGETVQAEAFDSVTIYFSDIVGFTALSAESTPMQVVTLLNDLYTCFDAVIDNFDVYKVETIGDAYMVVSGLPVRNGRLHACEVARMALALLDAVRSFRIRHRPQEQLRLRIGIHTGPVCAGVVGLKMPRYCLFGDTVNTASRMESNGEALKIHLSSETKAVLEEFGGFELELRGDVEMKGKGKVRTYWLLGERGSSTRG

[2] = biological target: T2, mNPR1-mFc (mouse); assay: SPR Biacore, mAb captured by anti-human Fc, 25C
T2 construct: also called mouse NPR1 extracellular domain expressed with a C-terminal mouse IgG2a
T2 chain: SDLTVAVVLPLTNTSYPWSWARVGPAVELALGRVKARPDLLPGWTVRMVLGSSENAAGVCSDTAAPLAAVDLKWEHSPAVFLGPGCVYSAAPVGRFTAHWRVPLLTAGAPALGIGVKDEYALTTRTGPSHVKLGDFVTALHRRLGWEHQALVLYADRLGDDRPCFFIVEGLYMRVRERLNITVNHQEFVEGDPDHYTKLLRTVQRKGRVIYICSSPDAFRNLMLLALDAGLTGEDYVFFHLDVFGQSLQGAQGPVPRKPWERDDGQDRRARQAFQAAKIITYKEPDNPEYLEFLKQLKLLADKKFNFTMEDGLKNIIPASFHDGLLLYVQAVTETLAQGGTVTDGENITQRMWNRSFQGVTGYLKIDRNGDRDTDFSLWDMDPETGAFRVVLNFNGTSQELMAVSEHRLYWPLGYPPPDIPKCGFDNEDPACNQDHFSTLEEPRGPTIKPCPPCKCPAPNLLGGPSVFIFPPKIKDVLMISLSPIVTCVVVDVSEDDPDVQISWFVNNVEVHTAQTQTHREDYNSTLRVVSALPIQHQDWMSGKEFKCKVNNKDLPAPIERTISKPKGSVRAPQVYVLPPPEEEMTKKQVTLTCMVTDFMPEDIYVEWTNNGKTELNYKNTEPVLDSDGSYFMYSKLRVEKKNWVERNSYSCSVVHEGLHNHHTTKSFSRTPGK
Method: (§1) Equilibrium dissociation constant (KD) for different NPR1 reagents binding to purified anti-NPR1 monoclonal antibodies (mAbs) were determined using a real-time surface plasmon resonance based Biacore 4000 biosensor. All binding studies were performed in 10 mM HEPES, 150 mM NaCl, 3 mM EDTA, and 0.05% v/v Surfactant Tween-20, pH 7.4 (HBS-ET) running buffer at 25° C. and 37° C. The Biacore CM5 sensor chip surface was first derivatized by amine coupling with either mouse anti-human Fc specific mAb (GE Healthcare, #BR100839) or goat anti-human Fcy specific polyclonal antibody (Jackson ImmunoResearch Laboratories, #BR-1008-39) to capture anti-NPR1 mAbs.

[3] = biological target: T3, human NPR1 on HEK293/hNPR1.myc.DDK cells with 10 nM hANP (NPR1-ANP complex) (human, UniProt P01160 124-151); assay: ECL cell binding (MSD), +10 nM hANP
T3 construct: also called NPR1-ANP Complex on the Cell Surface
T3 sequence: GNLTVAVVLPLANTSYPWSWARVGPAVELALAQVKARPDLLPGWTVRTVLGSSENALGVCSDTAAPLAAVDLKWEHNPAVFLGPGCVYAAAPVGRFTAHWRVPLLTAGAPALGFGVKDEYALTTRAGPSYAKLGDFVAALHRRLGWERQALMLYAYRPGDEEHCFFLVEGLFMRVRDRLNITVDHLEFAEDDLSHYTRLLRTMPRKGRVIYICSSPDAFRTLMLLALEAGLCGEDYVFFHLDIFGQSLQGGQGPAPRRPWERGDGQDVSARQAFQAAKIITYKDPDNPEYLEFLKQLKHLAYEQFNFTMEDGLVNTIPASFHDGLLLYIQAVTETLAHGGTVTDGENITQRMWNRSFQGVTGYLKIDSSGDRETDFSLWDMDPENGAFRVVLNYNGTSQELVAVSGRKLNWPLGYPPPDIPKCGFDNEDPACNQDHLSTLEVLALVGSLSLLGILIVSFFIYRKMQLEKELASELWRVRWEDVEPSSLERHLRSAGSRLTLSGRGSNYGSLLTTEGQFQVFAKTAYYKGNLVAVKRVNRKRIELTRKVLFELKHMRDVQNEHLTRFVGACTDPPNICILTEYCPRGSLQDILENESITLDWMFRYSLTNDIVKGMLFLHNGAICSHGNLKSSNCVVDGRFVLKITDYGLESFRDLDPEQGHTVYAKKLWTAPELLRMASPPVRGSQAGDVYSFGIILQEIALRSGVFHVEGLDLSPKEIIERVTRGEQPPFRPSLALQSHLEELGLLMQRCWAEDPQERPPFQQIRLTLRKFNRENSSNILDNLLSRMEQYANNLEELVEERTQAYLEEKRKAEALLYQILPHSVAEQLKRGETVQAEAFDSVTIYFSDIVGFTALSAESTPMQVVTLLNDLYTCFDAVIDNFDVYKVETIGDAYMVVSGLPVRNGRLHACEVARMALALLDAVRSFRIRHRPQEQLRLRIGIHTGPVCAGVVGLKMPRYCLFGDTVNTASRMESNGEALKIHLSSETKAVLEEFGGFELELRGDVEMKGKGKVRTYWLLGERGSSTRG
T3 sequence (peptide): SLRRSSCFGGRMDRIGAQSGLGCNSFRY
Method: (§2) All cells were washed once with 1×PBS with Ca²⁺/Mg²⁺ and counted with a Cellometer™ Auto T4 cell counter (Nexcelom Bioscience). Approximately 2.0×10⁴ HEK293/hNPR1.myc.DDK or HEK293 cells were seeded separately onto 96-well carbon electrode plates (MULTI-ARRAY high bind plate, Meso Scale Discovery (MSD, Rockville, MD)) and incubated for 1 hour (h) at 37° C. Nonspecific binding sites were blocked by 2% BSA (w/v) in 1×PBS with Ca²⁺/Mg²⁺for 1 h at room temperature (RT). HEK293/hNPR1.myc. […] The plate-bound antibodies were detected with SULFO-TAG™-conjugated goat polyclonal anti-human IgG antibody specific for heavy and light chains (Jackson Immunoresearch, West Grove, PA) for 1 h, RT.
(§3) After washes, plates were developed with Read Buffer (MSD, Rockville, MD) according to manufacturer's recommended procedure and luminescent signals were recorded with a SECTOR Imager 600 (MSD, Rockville, MD). Luminescence intensity, measured in relative light units (RLU), was recorded to indicate the binding intensity of each antibody at the range of concentrations.
(§4) In addition, direct binding signals (RLU) were analyzed as a function of the antibody concentration and data were fitted with a sigmoidal (four-parameter logistic) dose-response model using R statistical package (open source).

[4] = biological target: T1, human NPR1 on HEK293/hNPR1.myc.DDK …; assay: ECL cell binding (MSD), 0 hANP
Method: as §2, §3, §4

[5] = biological target: T4, mfNPR1-mFc:hBNP complex (monkey; human, UniProt P16860 103-134); assay: SPR Biacore, mAb captured by anti-human Fc, 37C
T4 construct: Receptor-Fc pre-complexed with 10-fold hBNP
Method: as §1

[6] = biological target: T2, mNPR1-mFc; assay: SPR Biacore, mAb captured by anti-human Fc, 37C
Method: as §1

| Binder | % Activation (vs ANP max), Expt 1 [1] [%] | % Activation (vs. ANP max), Expt II [1] [%] | EC50 (nM), calcium flux, Expt 1 [1] [nM] | EC50 (nM), calcium flux, Expt II [1] [nM] | 100 nM Ag Bound (RU) [2] [RU] | EC50 [3] [nM] | Ratio at 3.7 nM Ab concentration of Cell Binding Signal (RLU) to HEK293/hNPR1.myc.DKK relative to parental HEK293 [3] [ratio] | EC50 [4] [nM] | Ratio at 3.7 nM Ab concentration of Cell Binding Signal (RLU) to HEK293/hNPR1.myc.DKK relative to parental HEK293 [4] [ratio] | 100 nM Ag Bound (RU) [5] [RU] | Kd [5] [nM] | koff [5] [s⁻¹] | kon [5] [M⁻¹ s⁻¹] | t½ [5] [h] | 100 nM Ag Bound (RU) [6] [RU] | binding result [6] |
| --- | --- | --- | --- | --- | --- | --- | --- | --- | --- | --- | --- | --- | --- | --- | --- | --- |
| mAb25497 (antibody, human IgG4, V domains shown) VH: QVQLVQSGAEVKEPGASVKVSCKASGYTFTDYYIHWVRQAPGQGLEWMGWINLNSGGKNHAQKFQGRVTVTSDTSINTAYIELGRLRGDDTAVYYCSRGGGSHYYYYYHGMDVWGQGTTVTVSS VL: DIQMTQSPSSLSASVGDRITITCRASHSIDSYLNWYQQKPGKAPKLLIYPASTLQSGVPSRFSGSGSGTDFTLTISSLQPEDSAIYYCQQSYSTPLTFGGGTKVEIK | 71.1 | 103 | 72.6 | 56.4 | 1 | 0.87 | 87 | 1.5 | 50 | 100 | 2.9 | 0.000166 | 57400 | 1.16 | 1 | no binding (tested: 100 nM) |
| mAb25479 (antibody, human IgG4, V domains shown) VH: QVQLVQSGAEVKKPGASVKVSCKASGYTFTGYYIHWVRQAPGQGLEWMGWINPNSIGTNYAQKFQGRVTLTRDTSISTAYMELSSLRSDDTAVYYCARGGSSSYYYYYYGMDVWGQGTTVTVSS VL: DIQMTQSPSSLSASVGDRVTITCRASQSIDNYLNWYQQKPGKAPKLLIYVASSLQSGVPSRFSGSGSGTDFTLTISSLQPEDFATYYCQQSYSTPLTFGGGTKVEIK | 66.7 | 82.8 | 174 | 102 | -1 | 1.2 | 51 | 1.7 | 30 | 135 | 5.53 | 0.000293 | 53000 | 0.657 | 2 |  |
| mAb22035 (antibody, human IgG4, V domains shown) VH: EVQLVESGGGLVQPGRSLRLSCAASGFTFDDYAMHWVRQAPGKGLEWVSGISWNSGTIGYADSVKGRFTMSRDNAKNSLYLQMNSLRPEDTALYYCAKDMGVSLALWGAFDIWGQGTMVTVSS VL: DIQMTQSPSSLSASVGDKVTITCRASQNIRTYLNWYQQKPGKAPKVLISTASSLQSGVPSRFSGSGSGTDFTLTISSLQPEDFAVFYCQQSFGIPRTFGQGTKVEIK | 73.1 | 56.8 | 384 | > 200 | -1 | 0.89 | 220 | 2.3 | 151 | 286 | 0.368 | 9.48e-05 | 258000 | 2.03 | 0 |  |
| mAb25498 (antibody, human IgG4, V domains shown) VH: QVQLVESGGGVVQPGRSLRLSCVASGFTFSSYGMVWVRQTPGKGLEWVAVIWHDGTNNYYADSVKGRFTISRDNSKNTLYLQMNSLRAEDTAVYYCAREPWLVRGYYYYAMDVWGQGTTVTVSS VL: not shown | 67.7 |  | 335 |  | 0 | 1.8 | 49 | 4.6 | 41 | 113 | 8.91 | 0.000464 | 52100 | 0.415 | 0 | no binding (tested: 100 nM) |
| mAb25491 (antibody, human IgG4, V domains shown) VH: QVQLVQSGAEVMKPGASVKVSCKASGYTFTGYYIHWVRQAPGQGLEWMGWITPNSGATNYAQKFQGRVTLTRDTSISTAYMELTRLKSDDTAVYYCARGGQLEFFYYYYGMDVWGQGTTVTVSS VL: DIQMTQSPSSLSASAGDRVTITCRASQSIDSYLNWYQQKPGKAPKLLISATSGFQSGVPSRFSGSGSGTDFTLTISSLQPEDFGTYYCQQSYTTPITFGQGTRLEIK | 74.6 | 104 | 102 | 43.4 | 1 | 1 | 78 | 1.6 | 58 | 146 | 1.6 | 0.00011 | 68900 | 1.75 | 1 | no binding (tested: 100 nM) |
